We go through 1 substance from publication PMC4447588.

For data set [1], the system named is Cc1cc2nc3c(=O)[nH]c(=O)nc-3n(C[C@H](O)[C@H](O)[C@H](O)COP(=O)(O)O)c2cc1C. The data set is described as follows: purified protein. The following applies: NADPH, pH 7.0, 37 °C, varied: cofactor.
Data set [2] relates to NC(=O)C1=CN([C@@H]2O[C@H](COP(=O)(O)OP(=O)(O)OC[C@H]3O[C@@H](n4cnc5c(N)ncnc54)[C@H](OP(=O)(O)O)[C@@H]3O)[C@@H](O)[C@H]2O)C=CC1. The data set is described as follows: purified protein. The conditions noted are these: FMN, pH 7.0, 37 °C.

For the substance PpArsH (Pseudomonas putida KT2440), the K0.5 in data set [1] worked out at 7.8 µM. In addition, the Michaelis-Menten constant (Km) (as a rule, the substrate concentration at which the rate is half of its maximum) in data set [2] is reported as 74 µM.
